T1: FliP (Salmonella enterica serovar Typhimurium, UniProt P54700 22-245)
T1 sequence (looked up): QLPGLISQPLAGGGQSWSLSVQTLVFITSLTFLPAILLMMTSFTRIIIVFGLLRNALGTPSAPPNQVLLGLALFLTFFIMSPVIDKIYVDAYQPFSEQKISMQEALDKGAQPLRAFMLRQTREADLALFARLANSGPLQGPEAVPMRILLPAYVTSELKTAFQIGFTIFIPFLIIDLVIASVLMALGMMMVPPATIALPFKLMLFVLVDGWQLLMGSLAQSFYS

B1: FlgI (natural protein, Salmonella enterica serovar Typhimurium, UniProt P15930 20-365, looked up)
chain: ERIRDLTSVQGVRENSLIGYGLVVGLDGTGDQTTQTPFTTQTLNNMLSQLGITVPTGTNMQLKNVAAVMVTASYPPFARQGQTIDVVVSSMGNAKSLRGGTLLMTPLKGVDSQVYALAQGNILVGGAGASAGGSSVQVNQLNGGRITNGAIIERELPTQFGAGNTINLQLNDEDFTMAQQITDAINRARGYGSATALDARTVQVRVPSGNSSQVRFLADIQNMEVNVTPQDAKVVINSRTGSVVMNREVTLDSCAVAQGNLSVTVNRQLNVNQPNTPFGGGQTVVTPQTQIDLRQSGGSLQSVRSSANLNSVVRALNALGATPMDLMSILQSMQSAGCLRAKLEII
B2: FlgD (natural protein, Salmonella enterica serovar Typhimurium, UniProt P0A1I9 1-232, looked up)
chain: MSIAVNMNDPTNTGVKTTTGSGSMTGSNAADLQSSFLTLLVAQLKNQDPTNPLQNNELTTQLAQISTVSGIEKLNTTLGAISGQIDNSQSLQATTLIGHGVMVPGTTILAGKGAEEGAVTSTTPFGVELQQPADKVTATITDKDGRVVRTLEIGELRAGVHTFTWDGKQTDGTTVPNGSYNIAITASNGGTQLVAQPLQFALVQGVTKGSNGNLLDLGTYGTTTLDEVRQII
B3: FliF (natural protein, Salmonella enterica serovar Typhimurium, UniProt P15928 1-560, looked up)
chain: MSATASTATQPKPLEWLNRLRANPRIPLIVAGSAAVAIVVAMVLWAKTPDYRTLFSNLSDQDGGAIVAQLTQMNIPYRFANGSGAIEVPADKVHELRLRLAQQGLPKGGAVGFELLDQEKFGISQFSEQVNYQRALEGELARTIETLGPVKSARVHLAMPKPSLFVREQKSPSASVTVTLEPGRALDEGQISAVVHLVSSAVAGLPPGNVTLVDQSGHLLTQSNTSGRDLNDAQLKFANDVESRIQRRIEAILSPIVGNGNVHAQVTAQLDFANKEQTEEHYSPNGDASKATLRSRQLNISEQVGAGYPGGVPGALSNQPAPPNEAPIATPPTNQQNAQNTPQTSTSTNSNSAGPRSTQRNETSNYEVDRTIRHTKMNVGDIERLSVAVVVNYKTLADGKPLPLTADQMKQIEDLTREAMGFSDKRGDTLNVVNSPFSAVDNTGGELPFWQQQSFIDQLLAAGRWLLVLVVAWILWRKAVRPQLTRRVEEAKAAQEQAQVRQETEEAVEVRLSKDEQLQQRRANQRLGAEVMSQRIREMSDNDPRVVALVIRQWMSNDHE
B4: FlgG (natural protein, Salmonella enterica serovar Typhimurium, UniProt P0A1J3 1-260, looked up)
chain: MISSLWIAKTGLDAQQTNMDVIANNLANVSTNGFKRQRAVFEDLLYQTIRQPGAQSSEQTTLPSGLQIGTGVRPVATERLHSQGNLSQTNNSKDVAIKGQGFFQVMLPDGTSAYTRDGSFQVDQNGQLVTAGGFQVQPAITIPANALSITIGRDGVVSVTQQGQAAPVQVGQLNLTTFMNDTGLESIGENLYIETQSSGAPNESTPGLNGAGLLYQGYVETSNVNVAEELVNMIQVQRAYEINSKAVSTTDQMLQKLTQL
B5: FlgF (natural protein, Salmonella enterica serovar Typhimurium, UniProt P16323 1-251, looked up)
chain: MDHAIYTAMGAASQTLNQQAVTASNLANASTPGFRAQLNALRAVPVDGLSLATRTLVTASTPGADMTPGQLDYTSRPLDVALQQDGWLVVQAADGAEGYTRNGNIQVGPTGQLTIQGHPVIGEGGPITVPEGSEITIAADGTISALNPGDPPNTVAPVGRLKLVKAEGNEVQRSDDGLFRLTAEAQAERGAVLAADPSIRIMSGVLEGSNVKPVEAMTDMIANARRFEMQMKVITSVDENEGRANQLLSMS
B6: FliE (natural protein, Salmonella enterica serovar Typhimurium, UniProt P26462 1-104, looked up)
chain: MAAIQGIEGVISQLQATAMAARGQDTHSQSTVSFAGQLHAALDRISDRQAAARVQAEKFTLGEPGIALNDVMADMQKASVSMQMGIQVRNKLVAAYQEVMSMQV
B7: FlgB (natural protein, Salmonella enterica serovar Typhimurium, UniProt P16437 1-138, looked up)
chain: MLDRLDAALRFQQEALNLRAQRQEILAANIANADTPGYQARDIDFASELKKVMVRGREETGGVALTLTSSHHIPAQAVSSPAVDLLYRVPDQPSLDGNTVDMDRERTQFADNSLKYQMGLTVLGSQLKGMMNVLQGGN
B8: FlgH (natural protein, Salmonella enterica serovar Typhimurium, UniProt P0A1N8 22-232, looked up)
chain: CAWIPAKPLVQGATTAQPIPGPVPVANGSIFQSAQPINYGYQPLFEDRRPRNIGDTLTIVLQENVSASKSSSANASRDGKTSFGFDTVPRYLQGLFGNSRADMEASGGNSFNGKGGANASNTFSGTLTVTVDQVLANGNLHVVGEKQIAINQGTEFIRFSGVVNPRTISGSNSVPSTQVADARIEYVGNGYINEAQNMGWLQRFFLNLSPM
modifications: lipidated N-terminal Cys (3 lipid moieties; diacylglycerol attached to the sidechain)
B9: FlgC (natural protein, Salmonella enterica serovar Typhimurium, UniProt P0A1I7 1-134, looked up)
chain: MALLNIFDIAGSALAAQSKRLNVAASNLANADSVTGPDGQPYRAKQVVFQVDAAPGQATGGVKVASVIESQAPEKLVYEPGNPLADANGYVKMPNVDVVGEMVNTMSASRSYQANIEVLNTVKSMMLKTLTLGQ

Assay in all cases: cryo-EM structure
The data set “cryo-EM structure” deals with the molecule itself.
The data set “FlgG” has as its target B4.
The target of the data set “FlgI” is B1.
In the data set “FliF” the target is B3.
The target of a further data set is T1, FliP.
The data set “FlgB” deals with B7.
For the data set “FlgF”, the target named is B5.

On to B1, for which the “stoichiometry N” value in the data set “cryo-EM structure” turned out to be 26 copies.
As to B2, the “stoichiometry N” value in “cryo-EM structure” turned out to be 5. Also, the binding result in the data set with FlgG is listed as “binds”.
In the case of B3, in the data set “cryo-EM structure”, the “stoichiometry N” value is 34.
Regarding B4, in “cryo-EM structure”, the “stoichiometry N” value came to 24 copies. In the data set with FlgI, the binding result was “binds”.
With B5, the “stoichiometry N” value in “cryo-EM structure” is 5 copies. Besides, the binding result in the data set with FlgG and with FliF was “binds” in each case.
For the molecule B6, the binding result with FliP and with FlgB was “binds” throughout.
Regarding B7, in “cryo-EM structure”, the “stoichiometry N” value amounted to 5 copies. Also, in the data set with FliF, the binding result is reported as “binds”.
Turning to B8, the “stoichiometry N” value in “cryo-EM structure” amounted to 26 copies. Besides, the binding result with FlgI is reported as “binds”.
Turning to B9, in the data set “cryo-EM structure”, the “stoichiometry N” value amounted to 6 copies. The binding result with FlgF, with FlgB and in the data set with FliF was “binds” in each case.

Source of the values: publication PMC7610862 (Nature microbiology, 2021).
